In patent US20100092465A1, “TREATMENT OF GRAFT-VERSUS-HOST DISEASE” (priority 2006, published 2010):
Values joined by “and” are separate entries in the source; they are usually repeats but may differ in a detail not shown here. Equal values may be shown once.

Assays:
[1] = biological target: T1, mouse ligand (single-chain IL27) (Mus musculus, UniProt O35228+Q8K3I6); test: SPR kinetics of soluble receptors with mouse IL27 ligand; conditions: binding with mouse ligand; gp130 not included
T1 construct: amino-terminal peptide tag (FLAG in lot A1426F) (N)
T1 sequence (O35228+Q8K3I6 with tags, fused parts or gaps): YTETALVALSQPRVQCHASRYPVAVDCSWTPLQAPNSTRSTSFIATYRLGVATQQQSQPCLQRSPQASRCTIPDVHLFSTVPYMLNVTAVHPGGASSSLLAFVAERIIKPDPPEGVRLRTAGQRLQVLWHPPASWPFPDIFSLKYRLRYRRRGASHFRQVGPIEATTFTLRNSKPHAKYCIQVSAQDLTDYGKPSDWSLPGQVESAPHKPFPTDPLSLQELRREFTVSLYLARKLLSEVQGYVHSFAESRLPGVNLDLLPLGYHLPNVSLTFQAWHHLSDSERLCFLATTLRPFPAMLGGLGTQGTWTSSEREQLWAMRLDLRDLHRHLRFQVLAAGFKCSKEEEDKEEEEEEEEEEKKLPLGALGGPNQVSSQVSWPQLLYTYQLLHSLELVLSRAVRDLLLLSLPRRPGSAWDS
Protocol: Kinetic rate and affinity constant values for the mouse (IL27RAm(mFc1), Example 3) and human (IL27RA-Fc5, Example 4) soluble receptors were obtained by surface plasmon resonance (SPR) using an automated instrument (BIACORE 3000; Biacore International AB, Uppsala, Sweden). The mouse soluble receptor was tested against mouse ligand (lot A1418F), and the human soluble receptor was tested against both mouse (A1426F) and human (A1534F) ligands. For determination of the kinetic rate constants for the receptor-ligand interactions, the gp130 molecule was not included as part of the receptor complex.
The IL27 ligands used in this study were single-chain molecules comprising EBI3 connected by its C-terminus to the N-terminus of IL-27 p28 via a polypeptide linker. Each of the ligands included an amino-terminal peptide tag.
For the mouse IL27RA study, the soluble receptor was captured onto the chip surface by an isotype-specific anti-mouse Fc antibody (obtained from Jackson ImmunoResearch Laboratories, Inc., West Grove, Pa.) covalently immobilized to the chip (BIACORE CM5 chip) using the standard amine coupling protocol specified by the instrument manufacturer. […]
All data were assessed using software provided with the instrument (BIACORE Evaluation software v. 3.2). […]

[2] = Pharmacokinetics of soluble receptors in female C57B1/6 mice; type: in vivo, mouse; conditions: for clearance from the circulation, comparison in words: mouse Fc1 fusion versus human Fc5 fusion
Protocol: Studies were performed to evaluate the pharmacokinetics of the mouse (IL-27RAm(mFc1)) and human (IL-27RA-Fc5) soluble receptors in female C57B1/6 mice.
Serum was generated from each sample and analyzed by a qualified enzyme-linked immunosorbant assay (ELISA). The resulting mean serum concentration versus time profiles were then subjected to noncompartmental pharmacokinetic analyses. The following pharmacokinetic parameters were calculated: C0 and Cmax (extrapolated concentration at time zero and maximum serum concentration, respectively), Tmax (time to achieve maximum concentration), t1/2 λz (terminal half-life), AUC0-t (area under the concentration versus time curve from time zero to the last measurable time point), AUCINF (area under the concentration versus time curve extrapolated to infinity), Cl or Cl/F (clearance or clearance divided by bioavailable fraction, respectively), VSS or VZ/F (steady state volume of distribution or volume of distribution divided by the bioavailable fraction, respectively), and F (bioavailable fraction).

huIL-27 [3] = biological target: T2, huIL-27 (Homo sapiens, UniProt Q14213+Q8NEV9); test: Phospho-STAT3 neutralization assay, total human PBMCs, huIL-27; type: cell-based; conditions: Total Human PBMCs; ligand huIL-27 at EC90
T2 sequence (Q14213 21-229): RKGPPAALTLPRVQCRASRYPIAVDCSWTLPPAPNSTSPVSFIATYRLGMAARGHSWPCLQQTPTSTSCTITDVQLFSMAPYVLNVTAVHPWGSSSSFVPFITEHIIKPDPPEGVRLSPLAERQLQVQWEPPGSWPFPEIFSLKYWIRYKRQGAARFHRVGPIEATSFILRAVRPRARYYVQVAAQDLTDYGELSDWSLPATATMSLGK
T2 sequence (Q8NEV9 29-243): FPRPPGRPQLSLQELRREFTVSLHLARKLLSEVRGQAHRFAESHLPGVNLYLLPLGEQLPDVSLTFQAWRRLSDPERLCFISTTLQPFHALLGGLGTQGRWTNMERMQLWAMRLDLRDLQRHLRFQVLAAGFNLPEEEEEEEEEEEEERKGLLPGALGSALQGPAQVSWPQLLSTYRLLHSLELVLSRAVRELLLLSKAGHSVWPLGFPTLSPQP
Source text: (§1) Whole mouse spleens were harvested from C57 B1/6 mice and washed two times with 1×PBS before being plated out at 2×10^5 cells/well in assay media (RPMI 1640 plus 10% fetal bovine serum) in 96-well, round-bottom tissue culture plates. Total human PBMC (peripheral blood mononuclear cells) were thawed from a frozen vial collected from a leukapherisis donation and washed two times with 1×PBS before being plated out at 10^6 cells/well in assay media in 96-well, round-bottom tissue culture plates. […] Following pre-incubation, treatments were added to the plates containing the cells and incubated together at 37° C. for 15 minutes.
(§2) Following incubation, cells were washed with ice-cold wash buffer (BIO-PLEX Cell Lysis Kit, BIO-RAD Laboratories, Hercules, Calif.) and put on ice to stop the reaction according to manufacturer's instructions. […]
(§3) Capture beads (BIO-PLEX Phospho-Stat3 Assay, BIO-RAD Laboratories) were combined with 50 μL of 1:1 diluted lysates and added to a 96-well filter plate according to manufacture's instructions (BIO-PLEX Phosphoprotein Detection Kit, BIO-RAD Laboratories). […] After the final wash, beads were resuspended in 125 μL/well of bead suspension buffer, shaken for 30 seconds, and read on an array reader (BIO-PLEX, BIO-RAD Laboratories) according to the manufacture's instructions. Data were analyzed using analytical softward (BIO-PLEX MANAGER 3.0, BIO-RAD Laboratories). […]

muIL-27 [4] = biological target: T3, muIL-27 (Mus musculus, UniProt O35228+Q8K3I6); test: Phospho-STAT3 neutralization assay, mouse spleens, muIL-27; type: cell-based; conditions: ligand muIL-27 at EC90
T3 sequence (O35228 19-228): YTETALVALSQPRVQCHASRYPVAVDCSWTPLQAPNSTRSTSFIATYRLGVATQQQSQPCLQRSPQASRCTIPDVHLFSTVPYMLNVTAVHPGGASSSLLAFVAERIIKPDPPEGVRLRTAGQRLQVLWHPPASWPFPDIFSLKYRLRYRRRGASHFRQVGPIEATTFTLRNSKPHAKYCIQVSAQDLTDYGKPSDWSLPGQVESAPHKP
T3 sequence (Q8K3I6 29-234): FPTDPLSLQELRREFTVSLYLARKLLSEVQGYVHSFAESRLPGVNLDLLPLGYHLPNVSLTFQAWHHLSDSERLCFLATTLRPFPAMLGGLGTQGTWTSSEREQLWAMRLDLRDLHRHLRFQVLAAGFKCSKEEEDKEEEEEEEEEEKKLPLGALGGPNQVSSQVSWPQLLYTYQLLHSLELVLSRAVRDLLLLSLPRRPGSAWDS
Source text: as §1, §2, §3

huIL-27 [5] = biological target: T2, huIL-27; test: Phospho-STAT3 neutralization assay, mouse spleens, huIL-27; type: cell-based; conditions: Mouse Spleens; ligand huIL-27 at EC90
Source text: as §1, §2, §3

muIL-27 [6] = biological target: T3, muIL-27; test: Phospho-STAT3 neutralization assay, total human PBMCs, muIL-27; type: cell-based; conditions: ligand muIL-27 at EC90
Source text: as §1, §2, §3

mouse IL-27 = biological target: T4, mouse IL-27 (Mus musculus, UniProt O35228+Q8K3I6); test: IL-27 inhibition of IL-2 production neutralized by IL-27RA Fc; type: cell-based
T4 sequence (O35228+Q8K3I6 with tags, fused parts or gaps): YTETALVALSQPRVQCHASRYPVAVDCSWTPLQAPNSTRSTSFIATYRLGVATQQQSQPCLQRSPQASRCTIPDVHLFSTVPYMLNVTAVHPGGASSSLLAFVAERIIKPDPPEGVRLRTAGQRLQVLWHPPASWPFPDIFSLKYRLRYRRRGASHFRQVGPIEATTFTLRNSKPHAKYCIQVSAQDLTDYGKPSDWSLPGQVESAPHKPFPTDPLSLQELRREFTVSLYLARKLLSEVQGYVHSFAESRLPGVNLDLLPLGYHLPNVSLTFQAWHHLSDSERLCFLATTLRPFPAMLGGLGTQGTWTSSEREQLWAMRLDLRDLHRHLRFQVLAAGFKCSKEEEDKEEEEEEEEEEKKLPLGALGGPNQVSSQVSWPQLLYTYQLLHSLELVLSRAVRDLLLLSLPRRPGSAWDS
Protocol: For testing of the soluble receptor, single-chain mouse IL-27 (10 ng/ml) was preincubated for 30 minutes at 37 degrees C. with either IL27RAm(mFc1) (10.0 and 5.0 .micro.g/ml), IL27RA-Fc5, mouse Fc1 protein (10.0 and 5.0 .micro.g/ml), human Fc5 protein (10.0 and 5.0 .micro.g/ml), or no recombinant protein in wells of the anti-CD3 coated plates. 4×10^5 CD4^+ CD62L high cells were added to the wells. Duplicate plates were set up for all experimental conditions. The plates were then cultured at 37 degrees for up to 72 hours. Cell supernatants were collected from one set of plates at 48 hours and from the duplicate set of plates at 72 hours. The supernatants were stored frozen at −80° C.

ka [1]: 1e+07 M⁻¹ s⁻¹
kd [1]: 0.0012 s⁻¹
IC50 (huIL-27 [3]): 1370 nM
IC50 (muIL-27 [4]): 0.18 nM
IC50 (huIL-27 [5]): 9.3 nM
IC50 (muIL-27 [6]): 4.83 nM
IL-2 concentration (mouse IL-27; 48 hr, protein conc. 5 (µg/ml; Fc controls in molar equiv.) + IL-27 10 ng/ml): 4021.15 pg/mL
IL-2 concentration (mouse IL-27; 48 hr, protein conc. 10 (µg/ml; Fc controls in molar equiv.) + IL-27 10 ng/ml, listed as mIL-27RA): 5215.59 pg/mL and 4922.26 pg/mL
IL-2 concentration (mouse IL-27; 72 hr, protein conc. 5 (µg/ml; Fc controls in molar equiv.) + IL-27 10 ng/ml): 5744.95 pg/mL
IL-2 concentration (mouse IL-27; 72 hr, protein conc. 10 (µg/ml; Fc controls in molar equiv.) + IL-27 10 ng/ml, listed as mIL-27RA): 6704.62 pg/mL and 12186.7 pg/mL
inhibition (partial block) of the ability of mouse IL-27 to inhibit IL-2 production (mouse IL-27; naïve CD4 T cells): ~50%
B1: IL-27RAm(mFc1): fusion protein comprising the extracellular domain of mouse IL27RA and a wild type BALB/c mouse gamma2a constant region Fc tag (protein)
chain: TRPHGSPGPLQCYSVGPLGILNCSWEPLGDLETPPVLYHQSQKYHPNRVWEVKVPSKQSWVTIPREQFTMADKLLIWGTQKGRPLWSSVSVNLETQMKPDTPQIFSQVDISEEATLEATVQWAPPVWPPQKVLICQFRYKECQAETWTRLEPQLKTDGLTPVEMQNLEPGTCYQVSGRCQVENGYPWGEWSSPLSFQTPFLDPEDVWVSGTVCETSGKRAALLVWKDPRPCVQVTYTVWFGAGDITTTQEEVPCCKSPVPAWMEWAVVSPGNSTSWVPPTNLSLVCLAPESAPCDVGVSSADGSPGIKVTWKQGTRKPLEYVVDWAQDGDSLDKLNWTRLPPGNLSTLLPGEFKGGVPYRITVTAVYSGGLAAAPSVWGFREELVPLAGPAVWRLPDDPPGTPVVAWGEVPRHQLRGQATHYTFCIQSRGLSTVCRNVSSQTQTATLPNLHLGSFKLWVTVSTVAGQGPPGPNLSLHLPDNRIRWK
AUC0-24 ([2]; IP, 100 μg): 98.2 µg·h/mL
AUCINF ([2]; IP, 100 μg): 102 µg·h/mL
Cl/F ([2]; IP, 100 μg): 0.983 mL/h
Tmax ([2]; IP, 100 μg): 1 h
t1/2 λz ([2]; IP, 100 μg): 5.17 h
Cmax ([2]; IP, 100 μg, serum): 13200 ng/mL
AUC0-24 ([2]; IV, 100 μg): 157 µg·h/mL
AUCINF ([2]; IV, 100 μg): 162 µg·h/mL
Cl ([2]; IV, 100 μg): 0.618 mL/h
Vss ([2]; IV, 100 μg): 3.05 mL
t1/2 λz ([2]; IV, 100 μg): 5.25 h
Co ([2]; IV, 100 μg, serum): 36.2 µg/mL
AUC0-24 ([2]; SC, 100 μg): 56.5 µg·h/mL
Tmax ([2]; SC, 100 μg): 3 h
Cmax ([2]; SC, 100 μg, serum): 7950 ng/mL
clearance from the circulation, comparison in words [2]: more rapid clearance
clearance from the circulation, comparison in words ([2]; listed as Zcytor1 fragment polypeptide joined to a wild-type murine immunoglobulin gamma2a): rapidly cleared from the circulation
